{"source": "patent US20230257479A1", "about": "(Genmab, published 2023)", "binders": {"B1": {"name": "IgG1-5T4-207-FEAR (antibody, V domains shown)", "VH": "QVQLQQWGAGLLKPSETLSLTCAVYGGSFSGYYWTWIRQPPGKGLEWIGEIDHSESTNYNPSLKSRVTISVDTSKNQFSLKLSSVTAADTAVYYCAGWFGELYHYYYGMDVWGQGTTVTVSS", "VL": "EIVLTQSPATLSLSPGERATLSCRASQSVSSYLAWYQQKPGQAPRLLIYDASNRATGIPARFSGSGSGTDFTLTISSLEPEDFAVYYCQQRSNWPLTFGGGTKVEIKR", "notes": "Monospecific, bivalent IgG1 FEAR"}, "B2": {"name": "IgG1-5T4-226-FEAR (antibody, V domains shown)", "VH": "B1 VH with T35S, E55G, G97A, Y103W, H104D", "VL": "EIVLTQSPATLSLSPGERATLSCRASQSVSSFLAWYQQKPGQAPRLLIYDASNRATGIPARFSGSGSGTDFTLTISSLEPEDFAVYYCQQRSNWPLTFGQGTRLEIK", "notes": "Monospecific, bivalent human IgG1 kappa with L234F, L235E, D265A, K409R (FEAR); also called IgG1-5T4-226-FEAR-FITC"}}, "key": {"[1]": {"molecular_target": "T1, human 5T4ECDHis (mature protein of SEQ ID NO: 99) (human, UniProt Q13641 32-355)", "T1 construct": "ECD of human 5T4 (aa 1-355 of Uniprot Q13641) with C-terminal His tag; residues 1-31 are the signal peptide; also called ECD of human 5T4 with a C-terminal His tag", "T1 sequence": "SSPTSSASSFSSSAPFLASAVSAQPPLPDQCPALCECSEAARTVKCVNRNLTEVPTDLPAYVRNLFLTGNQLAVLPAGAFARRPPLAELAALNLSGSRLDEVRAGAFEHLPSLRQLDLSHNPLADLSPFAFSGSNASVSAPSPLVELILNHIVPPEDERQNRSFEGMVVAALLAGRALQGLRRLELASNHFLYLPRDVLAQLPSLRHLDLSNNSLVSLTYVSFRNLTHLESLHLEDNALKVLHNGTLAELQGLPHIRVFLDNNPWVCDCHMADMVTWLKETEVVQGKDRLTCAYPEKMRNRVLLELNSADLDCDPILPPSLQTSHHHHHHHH", "assay": "BLI, antibody on anti-human IgG Fc Capture biosensor, antigen in solution"}, "[2]": {"molecular_target": "T1, human 5T4ECDHis (mature protein of SEQ …)", "assay": "BLI cross-block; competitor (immobilised): IgG1-5T4-H8-FEAR"}, "[3]": {"molecular_target": "T1, human 5T4ECDHis (mature protein of SEQ …)", "assay": "BLI cross-block; competitor (immobilised): IgG1-5T4-207-FEAR"}, "[4]": {"molecular_target": "T2, recombinant cynomolgus monkey 5T4 protein (Cusabio; cat. no. CSB-MP024093MOV) (cynomolgus monkey, UniProt Q4R8Y9 35-355)", "T2 construct": "extracellular domain; Bought protein; also called cynomolgus 5T4; cynomolgus monkey 5T4 extracellular domain", "T2 sequence (looked up)": "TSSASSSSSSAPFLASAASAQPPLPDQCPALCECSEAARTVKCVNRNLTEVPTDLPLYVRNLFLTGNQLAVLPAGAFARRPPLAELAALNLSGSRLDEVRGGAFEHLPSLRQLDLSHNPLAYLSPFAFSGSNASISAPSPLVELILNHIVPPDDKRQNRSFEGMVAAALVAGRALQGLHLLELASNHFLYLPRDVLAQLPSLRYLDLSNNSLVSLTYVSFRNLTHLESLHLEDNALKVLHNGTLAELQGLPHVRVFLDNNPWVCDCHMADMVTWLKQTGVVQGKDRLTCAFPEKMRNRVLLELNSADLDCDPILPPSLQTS", "assay": "BLI, antibody on anti-human IgG Fc Capture biosensor, antigen in solution"}, "[5]": {"molecular_target": "T1, human 5T4ECDHis (mature protein of SEQ …)", "assay": "BLI cross-block; competitor (immobilised): IgG1-5T4-076-FEAR"}, "[6]": {"molecular_target": "T1, human 5T4ECDHis (mature protein of SEQ …)", "assay": "BLI cross-block; competitor (immobilised): IgG1-5T4-A1-F405L"}, "[7]": {"molecular_target": "T1, human 5T4ECDHis (mature protein of SEQ …)", "assay": "BLI cross-block; competitor (immobilised): IgG1-5T4-085-FEAR"}, "[8]": {"molecular_target": "T1, human 5T4ECDHis (mature protein of SEQ …)", "assay": "BLI cross-block; competitor (immobilised): IgG1-5T4-226-FEAR"}, "[9]": {"molecular_target": "T1, human 5T4ECDHis (mature protein of SEQ …)", "assay": "BLI cross-block; competitor (immobilised): IgG1-5T4-127-FEAR"}, "[10]": {"molecular_target": "T3, full length chicken 5T4 (SEQ ID NO: 3) on transfected HEK-293 cells (chicken)", "T3 construct": "Uniprot R4GM46; residues 1-27 are the signal peptide", "T3 chain": "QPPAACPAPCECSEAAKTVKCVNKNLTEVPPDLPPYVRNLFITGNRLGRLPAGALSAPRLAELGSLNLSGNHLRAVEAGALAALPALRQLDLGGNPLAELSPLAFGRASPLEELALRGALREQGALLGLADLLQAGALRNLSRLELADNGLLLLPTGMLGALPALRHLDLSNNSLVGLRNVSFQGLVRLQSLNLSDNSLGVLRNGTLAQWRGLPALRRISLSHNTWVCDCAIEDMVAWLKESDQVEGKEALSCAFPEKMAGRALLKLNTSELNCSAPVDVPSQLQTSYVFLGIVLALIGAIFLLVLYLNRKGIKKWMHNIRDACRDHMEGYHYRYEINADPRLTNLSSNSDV", "assay": "flow cytometry, HEK-293 cells transfected with chicken 5T4, PE secondary"}, "[11]": {"molecular_target": "T1, human 5T4ECDHis (mature protein of SEQ …)", "assay": "BLI cross-block; competitor (immobilised): IgG1-5T4-059-FEAR"}, "[12]": {"molecular_target": "T1, human 5T4ECDHis (mature protein of SEQ …)", "assay": "BLI cross-block; competitor (immobilised): IgG1-5T4-106-FEAR"}, "[13]": {"molecular_target": "T4, full length human 5T4 (SEQ ID NO: 1) on cells (human, UniProt Q13641 32-420)", "T4 construct": "Uniprot Q13641; residues 1-31 are the signal peptide; Used both for transfected HEK-293 cells and for 5T4-expressing human tumor cell lines", "T4 sequence": "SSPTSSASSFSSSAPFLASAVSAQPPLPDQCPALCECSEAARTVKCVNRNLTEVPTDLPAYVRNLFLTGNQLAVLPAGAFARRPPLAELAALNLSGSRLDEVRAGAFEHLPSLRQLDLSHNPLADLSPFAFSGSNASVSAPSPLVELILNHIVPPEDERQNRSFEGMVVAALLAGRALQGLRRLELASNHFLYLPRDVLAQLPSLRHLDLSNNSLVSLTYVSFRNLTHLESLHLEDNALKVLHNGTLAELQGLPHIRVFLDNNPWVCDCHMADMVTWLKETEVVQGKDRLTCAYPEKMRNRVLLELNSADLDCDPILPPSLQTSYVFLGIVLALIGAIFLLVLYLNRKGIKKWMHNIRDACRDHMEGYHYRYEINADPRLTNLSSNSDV", "assay": "flow cytometry, HEK-293 cells transfected with human 5T4, FITC secondary [I)B]"}}, "note": "Positions count from the first letter of the chain named. Names may count otherwise.", "data": [{"binder": "B1", "values": [{"measurement": "Kd", "setting": "[1]", "value": 2.6, "unit": "nM"}, {"measurement": "koff", "setting": "[1]", "value": 0.00068, "unit": "s⁻¹"}, {"measurement": "kon", "setting": "[1]", "value": 270000, "unit": "M⁻¹ s⁻¹"}, {"measurement": "corrected association response", "setting": "[2]", "value": -0.01, "unit": "nm"}, {"measurement": "corrected association response", "setting": "[3]", "value": -0.02, "unit": "nm"}, {"measurement": "Kd", "setting": "[4]", "value": 6.3, "unit": "nM"}, {"measurement": "koff", "setting": "[4]", "value": 0.00087, "unit": "s⁻¹"}, {"measurement": "kon", "setting": "[4]", "value": 140000, "unit": "M⁻¹ s⁻¹"}, {"measurement": "corrected association response", "setting": "[5]", "value": 0.05, "unit": "nm"}, {"measurement": "corrected association response", "setting": "[6]", "value": 0.86, "unit": "nm"}, {"measurement": "corrected association response", "setting": "[7]", "value": 0.08, "unit": "nm"}, {"measurement": "corrected association response", "setting": "[8]", "value": -0.02, "unit": "nm"}, {"measurement": "corrected association response", "setting": "[9]", "value": 0.16, "unit": "nm"}, {"measurement": "binding result", "setting": "[10]", "value": "binds"}, {"measurement": "corrected association response", "setting": "[11]", "value": 0.02, "unit": "nm"}, {"measurement": "corrected association response", "setting": "[12]", "value": -0.03, "unit": "nm"}]}, {"binder": "B2", "values": [{"measurement": "Kd", "setting": "[1]", "value": 2.5, "unit": "nM"}, {"measurement": "koff", "setting": "[1]", "value": 0.00081, "unit": "s⁻¹"}, {"measurement": "kon", "setting": "[1]", "value": 330000, "unit": "M⁻¹ s⁻¹"}, {"measurement": "corrected association response", "setting": "[2]", "value": -0.01, "unit": "nm"}, {"measurement": "corrected association response", "setting": "[3]", "value": -0.02, "unit": "nm"}, {"measurement": "Kd", "setting": "[4]", "value": 11, "unit": "nM"}, {"measurement": "koff", "setting": "[4]", "value": 0.0015, "unit": "s⁻¹"}, {"measurement": "kon", "setting": "[4]", "value": 140000, "unit": "M⁻¹ s⁻¹"}, {"measurement": "corrected association response", "setting": "[5]", "value": 0.05, "unit": "nm"}, {"measurement": "corrected association response", "setting": "[6]", "value": 0.86, "unit": "nm"}, {"measurement": "corrected association response", "setting": "[7]", "value": 0.07, "unit": "nm"}, {"measurement": "EC50 (read off the curve)", "setting": "[13]", "value": "~0.1", "unit": "µg/mL"}, {"measurement": "corrected association response", "setting": "[8]", "value": -0.02, "unit": "nm"}, {"measurement": "corrected association response", "setting": "[9]", "value": 0.16, "unit": "nm"}, {"measurement": "binding result", "setting": "[10]", "value": "binds"}, {"measurement": "corrected association response", "setting": "[11]", "value": 0.01, "unit": "nm"}, {"measurement": "corrected association response", "setting": "[12]", "value": -0.02, "unit": "nm"}]}]}
